15 molecules from US20250207119A1 (VERRA THERAPEUTICS, published 2025) can be followed below.

Some targets named below: MMP 12 (UniProt P39900 17-470, limits assumed); MMP 9 (UniProt P14780 20-707, limits assumed); MMP 3 (UniProt P08254 18-477, limits assumed); MMP 14 (UniProt P50281 21-538).
Holding throughout (experiment): cell-based or functional assay
The target in assay [1] is T1, Human ADAM10 from R & D Systems (human, UniProt O14672 214-672).
T1 sequence (looked up): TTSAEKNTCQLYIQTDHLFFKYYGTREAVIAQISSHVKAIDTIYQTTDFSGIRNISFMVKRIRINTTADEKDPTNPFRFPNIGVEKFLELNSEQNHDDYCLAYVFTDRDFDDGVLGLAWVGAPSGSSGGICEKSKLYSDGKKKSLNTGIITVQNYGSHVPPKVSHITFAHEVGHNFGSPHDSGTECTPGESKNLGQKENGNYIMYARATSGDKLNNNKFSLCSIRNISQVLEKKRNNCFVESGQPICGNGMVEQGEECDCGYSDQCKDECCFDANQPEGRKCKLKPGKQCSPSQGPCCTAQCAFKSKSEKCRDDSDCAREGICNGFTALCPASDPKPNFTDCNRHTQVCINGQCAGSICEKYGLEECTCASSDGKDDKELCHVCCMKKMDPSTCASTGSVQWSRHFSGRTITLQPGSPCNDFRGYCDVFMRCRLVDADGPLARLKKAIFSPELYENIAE

Assay [2] concerns the target Meprin from R & D Systems.
The target of another assay is T2, MMP 2 (UniProt P08253 30-660, limits assumed).
T2 sequence (looked up): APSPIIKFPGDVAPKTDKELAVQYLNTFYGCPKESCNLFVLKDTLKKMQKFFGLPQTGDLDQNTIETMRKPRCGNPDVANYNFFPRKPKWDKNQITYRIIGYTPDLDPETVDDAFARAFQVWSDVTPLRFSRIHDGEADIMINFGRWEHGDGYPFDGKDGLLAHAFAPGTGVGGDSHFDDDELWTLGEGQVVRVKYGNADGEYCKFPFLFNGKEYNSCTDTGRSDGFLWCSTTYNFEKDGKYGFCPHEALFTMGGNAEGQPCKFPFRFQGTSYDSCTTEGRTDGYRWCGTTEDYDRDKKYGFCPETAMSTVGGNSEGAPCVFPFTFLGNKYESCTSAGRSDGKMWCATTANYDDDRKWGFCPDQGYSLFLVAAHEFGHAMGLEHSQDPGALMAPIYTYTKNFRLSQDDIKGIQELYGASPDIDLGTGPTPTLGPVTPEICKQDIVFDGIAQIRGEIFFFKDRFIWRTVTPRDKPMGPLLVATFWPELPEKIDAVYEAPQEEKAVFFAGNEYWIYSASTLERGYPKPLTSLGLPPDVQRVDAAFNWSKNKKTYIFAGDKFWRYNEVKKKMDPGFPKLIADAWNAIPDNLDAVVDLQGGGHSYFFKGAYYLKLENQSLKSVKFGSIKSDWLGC

Chain of MMP 3 (P08254 18-477 limits assumed): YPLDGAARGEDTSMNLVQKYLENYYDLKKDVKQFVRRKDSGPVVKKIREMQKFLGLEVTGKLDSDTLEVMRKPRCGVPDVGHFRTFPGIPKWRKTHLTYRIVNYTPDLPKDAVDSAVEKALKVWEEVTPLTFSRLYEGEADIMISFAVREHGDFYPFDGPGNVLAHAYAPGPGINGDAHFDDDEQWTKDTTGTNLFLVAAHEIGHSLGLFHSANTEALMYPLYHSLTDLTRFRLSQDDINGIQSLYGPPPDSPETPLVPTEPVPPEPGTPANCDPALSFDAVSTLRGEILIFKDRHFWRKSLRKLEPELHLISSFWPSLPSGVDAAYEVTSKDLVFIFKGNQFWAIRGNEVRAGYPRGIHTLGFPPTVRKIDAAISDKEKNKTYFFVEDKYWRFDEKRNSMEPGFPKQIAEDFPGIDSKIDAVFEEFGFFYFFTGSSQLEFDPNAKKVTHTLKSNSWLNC
Chain of MMP 9 (P14780 20-707 limits assumed): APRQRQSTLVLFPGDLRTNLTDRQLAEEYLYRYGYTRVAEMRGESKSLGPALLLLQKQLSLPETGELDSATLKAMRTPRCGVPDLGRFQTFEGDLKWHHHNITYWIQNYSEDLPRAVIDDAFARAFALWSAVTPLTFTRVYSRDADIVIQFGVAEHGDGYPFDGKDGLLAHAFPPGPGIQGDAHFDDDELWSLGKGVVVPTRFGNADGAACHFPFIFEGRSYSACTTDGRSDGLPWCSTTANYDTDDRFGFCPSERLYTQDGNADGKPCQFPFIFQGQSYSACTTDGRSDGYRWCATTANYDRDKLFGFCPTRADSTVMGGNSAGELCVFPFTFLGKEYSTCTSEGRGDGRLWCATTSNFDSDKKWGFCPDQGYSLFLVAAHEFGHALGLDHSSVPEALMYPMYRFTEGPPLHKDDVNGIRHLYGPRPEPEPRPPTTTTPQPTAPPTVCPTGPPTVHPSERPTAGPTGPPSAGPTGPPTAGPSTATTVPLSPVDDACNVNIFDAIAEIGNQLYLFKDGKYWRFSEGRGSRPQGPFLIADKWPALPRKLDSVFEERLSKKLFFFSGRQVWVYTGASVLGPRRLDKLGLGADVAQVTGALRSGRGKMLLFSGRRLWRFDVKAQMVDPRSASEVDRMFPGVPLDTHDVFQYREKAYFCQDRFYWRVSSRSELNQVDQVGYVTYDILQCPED
Chain of MMP 12 (P39900 17-470 limits assumed): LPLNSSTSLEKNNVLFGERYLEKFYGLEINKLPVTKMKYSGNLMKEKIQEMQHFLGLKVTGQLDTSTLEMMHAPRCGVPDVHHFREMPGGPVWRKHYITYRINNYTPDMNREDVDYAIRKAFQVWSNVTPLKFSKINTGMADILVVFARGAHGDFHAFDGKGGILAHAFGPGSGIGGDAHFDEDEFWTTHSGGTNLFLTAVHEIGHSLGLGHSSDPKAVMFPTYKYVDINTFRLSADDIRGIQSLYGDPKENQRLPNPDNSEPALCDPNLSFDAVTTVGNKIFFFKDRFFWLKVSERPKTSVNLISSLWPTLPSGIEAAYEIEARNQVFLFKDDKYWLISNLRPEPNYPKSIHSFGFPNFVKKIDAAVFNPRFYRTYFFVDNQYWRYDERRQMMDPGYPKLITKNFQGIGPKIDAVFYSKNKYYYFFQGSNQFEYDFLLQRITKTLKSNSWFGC

B1: C-term PEG-SEQ ID NO: 71 (R29K; R55K; C151S; E177A) (peptide)
chain: NPLNKYIRHYEGLSYNVDSLHQKHQRAKKAVSHEDQFLRLDFHAHGRHFNLRMKKDTSLFSDEFKVETSNKVLDYDTSHIYTGHIYGEEGSFSHGSVIDGRFEGFIQTRGGTFYVEPAERYIKDRTLPFHSVIYHEDDINYPHKYGPQGGSADHSVFERMRKYQMTGVEEVTQIPQAEHAANGPELLRKGSGSC
modifications: 10 kDa maleimide PEG on a cysteine at the C-terminus ('C-term PEG')
Consider B1, for which the “IC50 (nM), inhibition of ADAM10 cleavage of the fluorescent substrate PEPDAB064” value in assay [1] came out at 19 nM. The “IC50, inhibition of meprin cleavage of the fluorescent substrate PEPDAB022” value (shortened to “IC50, inhibition”) in assay [2] is roughly 4000 nM.

B2: SEQ ID NO: 65 (R26A; R52A; C151S) (peptide)
chain: NPLNKYIRHYEGLSYNVDSLHQKHQAAKRAVSHEDQFLRLDFHAHGRHFNLAMKRDTSLFSDEFKVETSNKVLDYDTSHIYTGHIYGEEGSFSHGSVIDGRFEGFIQTRGGTFYVEPAERYIKDRTLPFHSVIYHEDDINYPHKYGPQGGSADHSVFERMRKYQMTGVEEVTQIPQAEHAANGPELLRK
For the molecule B2, the “IC50 (nM), inhibition of ADAM10 cleavage of the fluorescent substrate PEPDAB064” value in assay [1] worked out at 49 nM. The “IC50 (nM), inhibition of meprin cleavage of the fluorescent substrate PEPDAB022” value in assay [2] worked out at 289 nM.

B3: SEQ ID NO: 66 (SEQ ID NO: 1/SEQ ID NO: 2 hybrid; R26A; R55A; C151S; E177A) (peptide)
chain: NPLNKYIRHYEGLSYNVDSLHQKHQAAKRAVSHEDQFLLLDFHAHGRQFNLRMKADTSLFSDEFKVETSNKVPDYDTSHIYTGHIYGEEGSFSHGSVIDGRFEGFIKTRGGTFYIEPAERYIKDRILPFHSVIYHEDDINYPHKYGPQGGSADHSVFERMRKYQMTGVEEVTQIPQAEHAANGPELLRK
As for B3, the “IC50 (nM), inhibition of ADAM10 cleavage of the fluorescent substrate PEPDAB064” value in assay [1] was 234 nM.

B4: SEQ ID NO: 68 (R26A; R55A; C151S) (peptide)
chain: NPLNKYIRHYEGLSYNVDSLHQKHQAAKRAVSHEDQFLRLDFHAHGRHFNLRMKADTSLFSDEFKVETSNKVLDYDTSHIYTGHIYGEEGSFSHGSVIDGRFEGFIQTRGGTFYVEPAERYIKDRTLPFHSVIYHEDDINYPHKYGPQGGSADHSVFERMRKYQMTGVEEVTQIPQAEHAANGPELLRK
With B4, the “IC50 (nM), inhibition of ADAM10 cleavage of the fluorescent substrate PEPDAB064” value in assay [1] is 130 nM.

B5: SEQ ID NO: 6 (mut2; K28A; K54A; C151S) (peptide)
chain: NPLNKYIRHYEGLSYNVDSLHQKHQRAARAVSHEDQFLRLDFHAHGRHFNLRMARDTSLFSDEFKVETSNKVLDYDTSHIYTGHIYGEEGSFSHGSVIDGRFEGFIQTRGGTFYVEPAERYIKDRTLPFHSVIYHEDDINYPHKYGPQGGSADHSVFERMRKYQMTGVEEVTQIPQEEHAANGPELLRK
As to B5, the “IC50 (nM), inhibition of ADAM10 cleavage of the fluorescent substrate PEPDAB064” value in assay [1] came out at 106 nM.

B6: Cys151-pegylated SEQ ID NO: 5 (K28A; K54A) (peptide)
chain: NPLNKYIRHYEGLSYNVDSLHQKHQRAARAVSHEDQFLRLDFHAHGRHFNLRMARDTSLFSDEFKVETSNKVLDYDTSHIYTGHIYGEEGSFSHGSVIDGRFEGFIQTRGGTFYVEPAERYIKDRTLPFHSVIYHEDDINYPHKYGPQGGCADHSVFERMRKYQMTGVEEVTQIPQEEHAANGPELLRK
modifications: 10 kDa maleimide PEG on Cys151
As to B6, the “IC50 (nM), inhibition of ADAM10 cleavage of the fluorescent substrate PEPDAB064” value in assay [1] was 83 nM.

B7: SEQ ID NO: 62 (R29A; R55A; C151S; E177A) (peptide)
chain: NPLNKYIRHYEGLSYNVDSLHQKHQRAKAAVSHEDQFLRLDFHAHGRHFNLRMKADTSLFSDEFKVETSNKVLDYDTSHIYTGHIYGEEGSFSHGSVIDGRFEGFIQTRGGTFYVEPAERYIKDRTLPFHSVIYHEDDINYPHKYGPQGGSADHSVFERMRKYQMTGVEEVTQIPQAEHAANGPELLRK
B7: the “IC50 (nM), inhibition of ADAM10 cleavage of the fluorescent substrate PEPDAB064” value in assay [1] came to 110 nM. Further, the “IC50 (nM), inhibition of meprin cleavage of the fluorescent substrate PEPDAB022” value in assay [2] was 817 nM. Besides, the “percent inhibition of MMP activity (PEPDAB008 substrate)” value with MMP 12, in the assay with MMP 9, with MMP 2, in the assay with MMP 3 and in the assay with MMP 14 was 0 % at 8 µM throughout.

B8: SEQ ID NO: 34 (R29A; C151S; E177A) (peptide)
chain: NPLNKYIRHYEGLSYNVDSLHQKHQRAKAAVSHEDQFLRLDFHAHGRHFNLRMKRDTSLFSDEFKVETSNKVLDYDTSHIYTGHIYGEEGSFSHGSVIDGRFEGFIQTRGGTFYVEPAERYIKDRTLPFHSVIYHEDDINYPHKYGPQGGSADHSVFERMRKYQMTGVEEVTQIPQAEHAANGPELLRK
Regarding B8, the “IC50 (nM), inhibition of ADAM10 cleavage of the fluorescent substrate PEPDAB064” value in assay [1] was 95 nM. Moreover, the “IC50 (nM), inhibition of meprin cleavage of the fluorescent substrate PEPDAB022” value in assay [2] was determined as 289 nM.

B9: SEQ ID NO: 63 (R29K; R55K; C151S; E177A) (peptide)
chain: NPLNKYIRHYEGLSYNVDSLHQKHQRAKKAVSHEDQFLRLDFHAHGRHFNLRMKKDTSLFSDEFKVETSNKVLDYDTSHIYTGHIYGEEGSFSHGSVIDGRFEGFIQTRGGTFYVEPAERYIKDRTLPFHSVIYHEDDINYPHKYGPQGGSADHSVFERMRKYQMTGVEEVTQIPQAEHAANGPELLRK
For B9, the “IC50 (nM), inhibition of ADAM10 cleavage of the fluorescent substrate PEPDAB064” value in assay [1] was found to be 35 nM. In addition, the “IC50 (nM), inhibition of meprin cleavage of the fluorescent substrate PEPDAB022” value in assay [2] stood at 542 nM.

B10: C-term PEG-SEQ ID NO: 69 (R29K; R55K; E177A) (peptide)
chain: NPLNKYIRHYEGLSYNVDSLHQKHQRAKKAVSHEDQFLRLDFHAHGRHFNLRMKKDTSLFSDEFKVETSNKVLDYDTSHIYTGHIYGEEGSFSHGSVIDGRFEGFIQTRGGTFYVEPAERYIKDRTLPFHSVIYHEDDINYPHKYGPQGGCADHSVFERMRKYQMTGVEEVTQIPQAEHAANGPELLRK
modifications: 10 kDa maleimide PEG on a cysteine; printed as 'C-term PEG' in Table 5 (the listed changes keep Cys151, and paragraph 162 speaks of a cysteine at C151, or the N- or C-terminus, for SEQ ID NOs: 69-71)
Turning to B10, the “IC50 (nM), inhibition of ADAM10 cleavage of the fluorescent substrate PEPDAB064” value in assay [1] worked out at 71 nM. Further, the “IC50, inhibition” value in assay [2] was roughly 5000 nM.

B11: SEQ ID NO: 5 (mut 1; K28A; K54A) (peptide)
chain: NPLNKYIRHYEGLSYNVDSLHQKHQRAARAVSHEDQFLRLDFHAHGRHFNLRMARDTSLFSDEFKVETSNKVLDYDTSHIYTGHIYGEEGSFSHGSVIDGRFEGFIQTRGGTFYVEPAERYIKDRTLPFHSVIYHEDDINYPHKYGPQGGCADHSVFERMRKYQMTGVEEVTQIPQEEHAANGPELLRK
Regarding B11, in assay [1], the “IC50 (nM), inhibition of ADAM10 cleavage of the fluorescent substrate PEPDAB064” value is 104 nM.

B12: SEQ ID NO: 9 (mut3; K28A; K54A; E88A; E177A) (peptide)
chain: NPLNKYIRHYEGLSYNVDSLHQKHQRAARAVSHEDQFLRLDFHAHGRHFNLRMARDTSLFSDEFKVETSNKVLDYDTSHIYTGHIYGAEGSFSHGSVIDGRFEGFIQTRGGTFYVEPAERYIKDRTLPFHSVIYHEDDINYPHKYGPQGGCADHSVFERMRKYQMTGVEEVTQIPQAEHAANGPELLRK
Take B12: the “IC50 (nM), inhibition of ADAM10 cleavage of the fluorescent substrate PEPDAB064” value in assay [1] was 142 nM.

B13: SEQ ID NO: 64 (SEQ ID NO: 2 with R29K; R55K; C151S) (peptide)
chain: NPLNKYIRHYEGLSYNVDSLHQKHQRAKKAVSHEDQFLLLDFHAHGRQFNLRMKKDTSLFSDEFKVETSNKVLDYDTSHIYTGHIYGEEGSFSHGSVIDGRFEGFIKTRGGTFYIEPAERYIKDRILPFHSVIYHEDDINYPHKYGPQGGSADHSVFERMRKYQMTGVEEGARAHPEKHAASSGPELLRK
With B13, in assay [1], the “IC50 (nM), inhibition of ADAM10 cleavage of the fluorescent substrate PEPDAB064” value is 83 nM. The “IC50 (nM), inhibition of meprin cleavage of the fluorescent substrate PEPDAB022” value in assay [2] was 682 nM.

B14: SEQ ID NO: 67 (SEQ ID NO: 1/SEQ ID NO: 2 hybrid; R26A; R52A; C151S) (peptide)
chain: NPLNKYIRHYEGLSYNVDSLHQKHQAAKRAVSHEDQFLRLDFHAHGRHFNLAMKRDTSLFSDEFKVETSNKVLDYDTSHIYTGHIYGEEGSFSHGSVIDGRFEGFIQTRGGTFYVEPAERYIKDRTLPFHSVIYHEDDINYPHKYGPQGGSADHSVFERMRKYQMTGVEEGARAHPEKHAASSGPELLRK
As to B14, in assay [1], the “IC50 (nM), inhibition of ADAM10 cleavage of the fluorescent substrate PEPDAB064” value came out at 147 nM.

B15: N-term PEG-SEQ ID NO: 70 (R29K; R55K; C151S; E177A) (peptide)
chain: CGSNPLNKYIRHYEGLSYNVDSLHQKHQRAKKAVSHEDQFLRLDFHAHGRHFNLRMKKDTSLFSDEFKVETSNKVLDYDTSHIYTGHIYGEEGSFSHGSVIDGRFEGFIQTRGGTFYVEPAERYIKDRTLPFHSVIYHEDDINYPHKYGPQGGSADHSVFERMRKYQMTGVEEVTQIPQAEHAANGPELLRK
modifications: 10 kDa maleimide PEG on a cysteine at the N-terminus ('N-term PEG')
B15: the “IC50 (nM), inhibition of ADAM10 cleavage of the fluorescent substrate PEPDAB064” value in assay [1] was found to be 52 nM. Further, the “IC50, inhibition” value in assay [2] is roughly 7000 nM.
